Experimental data as given in US20230287118A1 (published 2023).
Changes are numbered by the printed parent chain.

Experiments:
cynomolgus monkey CD20 = target: T1, cynomolgus monkey CD20 (cynomolgus monkey, UniProt M4ZHZ6 1-297); assay: flow cytometry, AlexaFluor488-labelled TCB on CD20-expressing B cells among cynomolgus monkey PBMCs
T1 construct: whole, on cells; also called cynomolgus CD20
T1 sequence: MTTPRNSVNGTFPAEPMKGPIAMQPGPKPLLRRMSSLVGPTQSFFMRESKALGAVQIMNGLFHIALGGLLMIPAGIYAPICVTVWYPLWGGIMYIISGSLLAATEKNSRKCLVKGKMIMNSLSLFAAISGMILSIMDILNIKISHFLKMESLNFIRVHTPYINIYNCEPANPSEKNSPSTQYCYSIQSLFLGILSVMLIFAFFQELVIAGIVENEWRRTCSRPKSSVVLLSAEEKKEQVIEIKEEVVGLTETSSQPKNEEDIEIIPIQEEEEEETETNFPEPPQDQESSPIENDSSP
Description: (§1) The crossreactivity of the anti-CD3/anti-CD20 TCB antibody shown as molecule “B” above was evaluated by assessing binding to human and cynomolgus monkey CD20-expressing B cells and CD3-expressing CD4 and CD8 T cells. Briefly, heparinized human and cynomolgus monkey blood from healthy donors was used to isolate PBMCs by density centrifugation. Isolated PBMCs were counted, checked for viability and resuspended at 4×10⁶ cells/ml in FACS buffer (100 μl PBS 0.1% BSA). 100 μl of cell suspension (containing 0.4×10⁶ cells) were plated into 96-well_U-bottom plate and centrifuged (420×g, 4 min). After removal of the supernatants, PBMCs were incubated for 30 min at 4° C. with increasing concentrations of the CD20 TCB-AlexaFlour488 (200 pM-200 nM), washed twice with cold PBS 0.1% BSA, re-incubated for further 30 min at 4° C. with human/cynomolgus cross-reactive antibodies: anti-CD19 (in house, clone 8B8)-AlexaFluor647, anti-CD4 (BD, #552838, clone L200)-PerCPCy5.5 and anti-CD8 (BD, #555367, clone RPA-T8)-PE.

human CD20 [1] = target: T2, human CD20 (human, UniProt P11836 1-297); assay: cell-based or functional assay
T2 sequence (looked up): T1 sequence with P25S, L31F, A51T, V157A, R217K, S226N, V227I, V239T

human CD20 [2] = target: T2, human CD20; assay: cell-based or functional assay; remark: listed apart in the source
human CD20 [3] = target: T2, human CD20; assay: flow cytometry, AlexaFluor488-labelled TCB on CD20-expressing B cells among human PBMCs
Description: as §1

human CD20 [4] = target: T2, human CD20; assay: cell-based or functional assay; remark: listed apart in the source
human CD3 [5] = target: T3, human CD3 (human, UniProt P07766 23-207); assay: flow cytometry on CD3-expressing Jurkat cells, PE anti-human Fc secondary antibody
T3 construct: In the assays it is the native CD3 complex on Jurkat or Jurkat-NFAT cells; also called CD3 epsilon
Description: (§2) The binding of the anti-CD3/anti-CD20 TCB antibody shown as molecule “B” above was tested on human CD20-expressing Diffuse Large-Cell B Cell Lymphoma (DLBCL) cell line (WSU DLCL2, 0.5-1×10⁶ CD20 binding sites) and CD3-expressing immortalized T lymphocyte line (Jurkat). Briefly, cells were harvested, counted, checked for viability and resuspended at 1.5×10⁶ cells/ml in FACS buffer (PBS 0.1% BSA).
(§3) Binding curves and the EC50 values related to binding were calculated using GraphPadPrism5.

human CD20 [6] = target: T2, human CD20; assay: cell-based or functional assay; remark: listed apart in the source
human CD3 [7] = target: T3, human CD3; assay: cell-based or functional assay
human CD20 [8] = target: T2, human CD20; assay: flow cytometry on CD20-expressing WSU DLCL2 cells, PE anti-human Fc secondary antibody
Description: as §2, §3

- EC50 (cynomolgus monkey CD20): 3300 pM
- EC50 24 h of tumor lysis, Ocly-18 cells (human CD20 [1]): 0.3 pM
- EC50 24 h of tumor lysis, SU-DHL-5 cells (human CD20 [1]): 1.2 pM
- EC50 24 h of tumor lysis, SU-DHL-8 cells (human CD20 [1]): 0.5 pM
- EC50 24 h of tumor lysis, U2932 cells (human CD20 [1]): 0.9 pM
- EC50 of tumor cell lysis (LDH release), Z138 cells + human PBMCs, 21-24 h, panel A (human CD20 [2]): 2.18 pM
- EC50 of tumor cell lysis (LDH release), Z138 cells + human PBMCs, 21-24 h, panel B (human CD20 [2]): 0.96 pM
- EC50 (human CD20 [3]): 4800 pM
- EC50 24 h of B cell depletion in normal human whole blood (human CD20 [4]): 13.2 pM
- EC50 (human CD3 [5]): ~12500 pM
- EC50 24 h of CD4 T cell activation, Z138 cells (average of 3 donors) (human CD20 [6]): 1.2 pM
- EC50 24 h of CD8 T cell activation, Z138 cells (average of 3 donors) (human CD20 [6]): 2.2 pM
- EC50 24 h of tumor lysis, Z138 cells (average of 3 donors) (human CD20 [6]): 1.6 pM
- EC50 of CD3 activation, Jurkat-NFAT reporter cells co-cultured with Z138 cells (luminescence, 6 h) (human CD3 [7]): 29 pM
- EC50 (human CD20 [8]): 980 pM
B1: anti-CD20/anti-CD3 TCB molecule B: "2+1 IgG CrossFab, inverted" with charge modifications (VH/VL exchange in CD3 binder, charge modification in CD20 binders) (bispecific antibody)
heavy 1: not shown
heavy 2: QVQLVQSGAEVKKPGSSVKVSCKASGYAFSYSWINWVRQAPGQGLEWMGRIFPGDGDTDYNGKFKGRVTITADKSTSTAYMELSSLRSEDTAVYYCARNVFDGYWLVYWGQGTLVTVSSASTKGPSVFPLAPSSKSTSGGTAALGCLVEDYFPEPVTVSWNSGALTSGVHTFPAVLQSSGLYSLSSVVTVPSSSLGTQTYICNVNHKPSNTKVDEKVEPKSCDKTHTCPPCPAPEAAGGPSVFLFPPKPKDTLMISRTPEVTCVVVDVSHEDPEVKFNWYVDGVEVHNAKTKPREEQYNSTYRVVSVLTVLHQDWLNGKEYKCKVSNKALGAPIEKTISKAKGQPREPQVCTLPPSRDELTKNQVSLSCAVKGFYPSDIAVEWESNGQPENNYKTTPPVLDSDGSFFLVSKLTVDKSRWQQGNVFSCSVMHEALHNHYTQKSLSLSP
light 1: DIVMTQTPLSLPVTPGEPASISCRSSKSLLHSNGITYLYWYLQKPGQSPQLLIYQMSNLVSGVPDRFSGSGSGTDFTLKISRVEAEDVGVYYCAQNLELPYTFGGGTKVEIKRTVAAPSVFIFPPSDRKLKSGTASVVCLLNNFYPREAKVQWKVDNALQSGNSQESVTEQDSKDSTYSLSSTLTLSKADYEKHKVYACEVTHQGLSSPVTKSFNRGEC
light 2: EVQLLESGGGLVQPGGSLRLSCAASGFTFSTYAMNWVRQAPGKGLEWVSRIRSKYNNYATYYADSVKGRFTISRDDSKNTLYLQMNSLRAEDTAVYYCVRHGNFGNSYVSWFAYWGQGTLVTVSSASVAAPSVFIFPPSDEQLKSGTASVVCLLNNFYPREAKVQWKVDNALQSGNSQESVTEQDSKDSTYSLSSTLTLSKADYEKHKVYACEVTHQGLSSPVTKSFNRGEC
notes: Bivalent for CD20, monovalent for CD3; also called CD20 TCB; CD20 TCB_2+1_with charges, inverted
